Legend:
RSV F on RSV-A2 virus = RSV F on RSV-A2 virus (Respiratory syncytial virus, RSV-A2, UniProt P03420 26-574); experiment: cell-based or functional assay
[1] = target: RSV postfusion F (postF), F ΔFP (Respiratory syncytial virus, UniProt P03420 26-513); experiment: BLI, IgG on anti-human IgG sensor, 100 nM antigen
[2] = target: RSV prefusion F (preF), DS-Cav1 (Respiratory syncytial virus, UniProt P03420 26-513); experiment: BLI, IgG on anti-human IgG sensor, 100 nM antigen
[3] = target: T1, RSV postfusion F (postF), subtype A (respiratory syncytial virus subtype A, UniProt P03420 26-513); experiment: BLI, IgG
T1 construct: also called Postfusion subtype A; F deltaFP

[4] = target: T2, RSV prefusion F (preF), subtype B (respiratory syncytial virus subtype B); experiment: BLI, IgG
T2 construct: also called Prefusion subtype B

[5] = target: RSV F on RSV subtype A virus (mKate-RSV A2) (respiratory syncytial virus A2, UniProt P03420 26-574); experiment: cell-based or functional assay
[6] = target: RSV F on RSV subtype B virus (mKate-RSV B 18537) (respiratory syncytial virus B 18537, UniProt P13843 26-574); experiment: cell-based or functional assay

B1: ADI-41677 (antibody, V domains shown)
VH: QVTLKESGPALVKPTQTLTLTCTFSGFSLSTSRMCVSWIRQPPGKALEWLARIDWDGDIYYSTSLRTRLTISKDTSKNQVVLTMTNMDPVDTATYYCARTSIYATGGYYLYYSDYWGQGTLVTVSS
VL: EIVMTQSPSSLSASVGDRVTITCRASQSIASYVNWFQQKPGKAPKLLIYAASNVHSGVPSRFSGSGSGTGFTLTISSLQPEDSAIYYCQQSYTTPWTFGQGTKLEIK
B1 was tested, and the “Neutralization IC50 (RSV subtype A)” value (RSV F on RSV-A2 virus) was greater than 25 µg/mL, the Kd [1] was 0.339 nM and the Kd [2] was 1.28 nM.

B2: ADI-14384 (antibody, V domains shown)
VH: QVQLQESGSGLVKPSQTLSLTCTVSGGSISSVGYSWSWIRQPPGKGLEWIGYIYHSGSPYYSPSLNSRVTISVDRSKNQFSLKLSSVTAADTAVYFCARVFFGGGGAFDIWGQGTTVTVSS
VL: QPGLTQPPSVSVAPGQTARITCGGNNIGSKSVQWYQQKPGQAPVLVMYYDSDRPSGIPDRFSGSSSGNTATLTITRVEAGDEADYSCQVWDSVNVHPVIFGGGTKLTVL
notes: full-length IgG; also called Ab 52
With B2 the Kd [3] was 0.469 nM and the Kd [4] was 4.78 nM.

B3: ADI-14342 (antibody, V domains shown)
VH: QVTLKESGPVLVKPTETLTLTCTVSGFSLSNAKMGVSWIRQPPGKALEWLAYISSNDEKSYSTSLKSRLTISKDTSKSQVVLTMTNMDPVDTATYYCARILLYDSSGYYLWYFDLWGRGTLVTVSS
VL: DIQVTQSPSSLSASVGDRVTITCRASQRITSYLNWYQHKPGKAPKLLIFAASSLHSGVPSTFSGSGSGTDFTLTISSLQPEDFATYYCQQSYSTPWTFGQGTKVEIK
notes: full-length IgG; also called Ab 10
In the case of B3, the Kd [3] is reported as 0.495 nM, the Kd [4] is reported as 26.1 nM and the “Neut IC50 subtype A” value [5] is reported as 1.75 µg/mL. For the same binder, the “Neut IC50 subtype B” value [6] was 8.27 µg/mL.

B4: ADI-14353 (antibody, V domains shown)
VH: QVQLVQSGAEVKKPGSSVKVSCKASGGTFSSYTISWVRQAPGQGLEWMGRIKPIIGIANNAQRFKGRVTITAEKSTGTAYMELSSLTSEDTAVYYCARGGYDYYGMDVWGQGTTVTVSS
VL: QSALTQPASVSGSPGQSITISCTGTSSDVGGYNYVSWHQQHPGKAPKLLIYDVSNRPSGVSNRFSGSKSGNTASLSISGLQAEDEADYYCSSFTSTSTPYVFGTGTQLTVL
notes: full-length IgG; also called Ab 21
For B4, the Kd [3] was 0.26 nM, the Kd [4] was 12.6 nM and the “Neut IC50 subtype B” value [6] was 14.6 µg/mL.

B5: ADI-14389 (antibody, V domains shown)
VH: EVQLVESGGGLVKPGGSLRLSCAASGFTFINAWMAWVRQAPGKGPEWVGRIKSRADGGTTDYAAPVKGRFTISRDDSKNRLFLQMDSLKTDDTAVYFCTTGVRALRFYNGMDVWGQGTTVTVSS
VL: ETTLTQSPSSLSASIGDRVTITCRAGQSISSFLNWYQQKPGKAPKLLIYAASTLQSGVPSRFSGSKSGTDFTLTISSLQPEDFATYYCQQSYHTFTFGPGTKVEIK
notes: full-length IgG; also called Ab 56
Binder B5 has a Kd [3] of 22.9 nM and a Kd [4] of 81.5 nM.

B6: ADI-14381 (antibody, V domains shown)
VH: EVQLVESGGGLVQPGGSLRLSCAASGFTFSSYSMNWVRQAPGKGLEWVSYIGSSSSSVYYGDSAKGRFTISRDNAKNSLYLQMNSLRDEDTALYYCARVGWLQYCRGGSCYASFGMDVWGQGTTVTVSS
VL: DIQMTQSPSSLSASVGDRVTITCRASQGIRNDLGWYQQKPGIAPKLLIYAASSLQSGVPSRFSGSGSGTDFTLTISSLQPEDFATYYCLQDYDSPYTFGQGTKLEIK
notes: full-length IgG; also called Ab 49
B6 showed a Kd [3] of 0.754 nM and a Kd [4] of 36.7 nM.

B7: ADI-14386 (antibody, V domains shown)
VH: EVQLVESGGGLVQPGGSLRLSCAASRFTFSSYAMSWVRQAPGKGLEWVSGIGASGGTTYYADSVKGRFTISRDNSKNTVYLQMNSLRAEDTAVYYCARCEYYYGSGSAGYYFDYWGQGTLVTVSS
VL: SYELTQPPSVSVSPGQTASITCSGDKLGSKFAFWYQQKPGQSPVLVIFQDVKRPSGIPERFSGSNSGNTATLTISGTQAMDEADYYCQAWDSGTAVFGGGTKVTVL
notes: full-length IgG; also called Ab 54
Binder B7 has a Kd [3] of 1.32 nM and a Kd [4] of 3.04 nM.

B8: ADI-41678 (antibody, V domains shown)
VH: EVQLVESGGGVVQPGGSLRLSCAASGFTFRTYGMHWVRQAPGKGLEWVAVISYDGSNKYYADSLMGRFTISRDNSKNTLYLQMNSLRAEDTAVYYCAKCFVPGSGGWYEYYFDYWGQGTLVTVSS
VL: QSVLTQPPSASGSPGQSVTISCTGTSSDVGGYNYVSWYQQHPGKAPKLMIYEVSKRPSGVPDRFSGSKSGNTASLTVSGLQAEDEADYYCSSYAGINNSVLFGGGTKLTVL
B8 was tested, and the “Neutralization IC50 (RSV subtype A)” value (RSV F on RSV-A2 virus) was greater than 25 µg/mL, the Kd [1] was 1.17 nM and the Kd [2] was 2.92 nM.

Reference: patent US20260258115A1 (MAPP BIOPHARMACEUTICAL, published 2026)
